Patent US8008452B2, “Phosphorylated Ndr kinase” (Novartis Forschungesstiftung, Zweigniederlassung Friedrich …, priority 2002, dated 2011)

What was measured:
myc-hMOB1 = experiment: Co-immunoprecipitation of HA-NDR and myc-hMOB1 from COS-1 cells; type: binding, human; settings: COS-1 cells treated with OA prior to lysis
Procedure: HA-tagged hNDR and myc-tagged hMOB1 were cotransfected in COS1 cells, which were stimulated with okadaic acid or solvent alone. After cell lysis and extract preparation, HA-NDR was immunoprecipitated and co-immunoprecipitated myc-hMOB1 detected or Myc-hMOB1 was immunoprecipitated and co-immunoprecipitated HA-NDR detected.
HA-NDR, wt and mutants, and myc-hMOB1 were cotransfected into COS-1 cells and the cells were treated with OA prior to lysis. HA-NDR was immunoprecipitated and the coimmunoprecipitated myc-hMOB1 detected. […] Furthermore, the two important in vivo phosphorylation sites of NDR, serine-281 in the activation segment and the hydrophobic motif site threonine-444 in the C-terminal regulatory domain were tested, as well as the threonine 74 site in the N-terminal regulatory domain, for their role in NDR-MOB interaction.
HA-NDR N-terminal point mutants and myc-mob1 were co-transfected into COS1 cells which were treated with OA prior to lysis. HA-NDR mutants were immunoprecipitated and coimmunoprecipitated myc-hMOB1 detected.
In this Example, the effect of treatment of COS1 cells with BAPTA-AM on the NDR-MOB Interaction was determined. […] HA-NDR was immunoprecipitated and co-immunoprecipitated myc-MOB1 detected. The kinase activity of the HA-NDR immunoprecipitates was measured in a peptide kinase assay.

GST-NDR1 [1] = experiment: Immunodetection of GST-NDR1 phosphorylated on Ser281 or Thr444 after in vitro autophosphorylation; type: biochemical, human; settings: in vitro autophosphorylation with or without Ca2+/S100B
Procedure: Either 1 microgram GST-NDR1 or HA-NDR1 immunoprecipitated from 100 microgram COS-1 detergent extracts as described above was separated on 10% SDS-PAGE and immunoblotted 2 h at RT or overnight at 4° C. with anti-Ser281P antisera (1:1000) in the presence of 50 microg/ml competing unphosphopeptide or anti-Thr444P purified antibody (1:500). Both antibodies were detected with horseradish peroxidase-conjugated donkey anti-rabbit Ig antibody (Amersham biosciences) and developed by ECL (chemiluminescence; Amersham Pharmacia Biotech).
To reliably quantify the effect of S100B on NDR1 phosphorylation status, rabbit polyclonal antibodies were raised against phosphoepitopes comprising Ser281 or Thr444. GST-NDR1 mutants were treated essentially as described in Example 2 and detected either with anti-NDR1_C-term antiserum or polyclonal antibodies recognising NDR1 phosphorylated on Ser281 or Thr444.

GST-NDR1 [2] = experiment: GST-NDR1 in vitro autophosphorylation, incorporated 32P by Cerenkov counting; type: biochemical, human
Procedure: BL21-DE3-pRep4 E. coli strain was transformed with the pGEX-2T_NDR1 wild type or mutant plasmids. BL21-DE3 is a protease-deficient E. coli strain and pRep4 is a Laclq repressor-bearing plasmid both available commercially. Optionally, if desired, an E. coli strain comprising GroESL can be used, which expresses a chaperone protein that stabilizes the kinase. Mid-logarithmic phase cells were induced with 0.5 mM isopropyl beta-D-thiogalactopyranoside (IPTG) for 4 hours at 30° C. Bacteria were lysed using a French press in the presence of 1 mg/ml lysosyme, and the fusion proteins were purified on glutathione-agarose (Amersham Pharmacia Biotech) as described by the manufacturers. Recombinant proteins were assayed for kinase activity as described below and autophosphorylation was determined after SDS-PAGE separation either by Cerenkov counting or by exposure to a PhosphorImager screen followed by analysis with ImageQuant software (Molecular Dynamics).
In brief, 1 microgram of purified GST-NDR1 (in solution ˜0.5 microM) wild type, kinase dead (K118A), and alanine mutants of phosphorylation residues Thr74, Ser281, and Thr444 were autophosphorylated for 2 hours in vitro without further additions or in the presence of 1 mM CaCl2 and 10 microM bovine S100B. Proteins were visualized on SDS gels using Coomassie Blue R-350 stained SDS-PAGE gel, and [gamma-^32P]ATP-labelled proteins were visualized by autoradiography of the gels developed on a Phosphorimager screen. The amount of incorporated ^32P was quantified by Cerenkov counting.

GST-NDR1 [3] = experiment: GST-NDR1 kinase assay (peptide kinase assay); type: biochemical, human
Procedure: 1 microgram of purified recombinant GST-NDR1 wild type and mutants (without further treatment or autophosphorylated for 2 h in the presence or absence of 1 mM CaCl2 and […] (Sigma)) were assayed in 20 microliter of reaction mixture containing 20 mM Tris-HCl pH 7.5, 10 mM MgCl2, 1 mM DTT, 100 microM [gamma-^32P]ATP (˜0.5 microCi/microliter), and 1 mM NDR1 substrate peptide ([…]; SEQ ID NO:22). After 30 mins incubation at 30° C., reactions were stopped with 50 mM EDTA, and 10 microliters of reaction mixture were spotted onto 2 cm^2 squares of P81 phosphocellulose paper (Whatman). These were subsequently washed for 4×5 min and 3×20 min in 1% phosphoric acid and once in acetone before counting in a liquid scintillation counter. One unit of NDR1 activity was defined as the amount which catalyses the phosphorylation of 1 nmol peptide substrate in 1 min.
Specific activity of GST-NDR1 mutants was also measured by a peptide kinase assay as described above. For this purpose, 1 microgram of purified GST-NDR1 wild type and alanine mutants were left without further treatment or autophosphorylated for 2 h in the presence or absence of 1 mM CaCl2 and […].

B1: S281A: NDR1 alanine mutant of phosphorylation residue Ser281; GST fusion or HA-tagged (protein)
chain: MAMTGSTPCSSMSNHTKERVTMTKVTLENFYSNLIAQHEEREMRQKKLEKVMEEEGLKDEEKRLRRSAHARKETEFLRLKRTRLGLEDFESLKVIGRGAFGEVRLVQKKDTGHVYAMKILRKADMLEKEQVGHIRAERDILVEADSLWVVKMFYSFQDKLNLYLIMEFLPGGDMMTLLMKKDTLTEEETQFYIAETVLAIDSIHQLGFIHRDIKPDNLLLDSKGHVKLSDFGLCTGLKKAHRTEFYRNLNHSLPSDFTFQNMNSKRKAETWKRNRRQLAFATVGTPDYIAPEVFMQTGYNKLCDWWSLGVIMYEMLIGYPPFCSETPQETYKKVMNWKETLTFPPEVPISEKAKDLILRFCCEWEHRIGAPGVEEIKSNSFFEGVDWEHIRERPAAISIEIKSIDDTSNFDEFPESDILKPTVATSNHPETDYKNKDWVFINYTYKRFEGLTARGAIPSYMKAAK
modifications: left off: small tags and cut ends
notes: NDR1 alanine mutant of phosphorylation residue Ser281; GST fusion or HA-tagged
interaction of HA-NDR variant with myc-hMOB1 (myc-hMOB1): still interact with MOB1
phosphorylation of GST-NDR1 on Ser281 and Thr444 (phosphospecific antibodies) (GST-NDR1 [1]): entirely abolishes the autophosphorylation on Thr444
amount of incorporated 32P (autophosphorylation), −S100B (GST-NDR1 [2]; GST-NDR1 variant, 1 microgram, autophosphorylated 2 hours without further additions, pmol ATP/pmol GST-NDR1): 0.0192
amount of incorporated 32P (autophosphorylation), +S100B (GST-NDR1 [2]; GST-NDR1 variant, 2 hours in the presence of 1 mM CaCl2 and 10 microM bovine S100B, in pmol ATP/pmol GST-NDR1): 0.028
autophosphorylation rate of GST-NDR1 mutant (in words) (GST-NDR1 [2]; compared with wild type): dramatically reduced autophosphorylation rate
Specific activity of GST-NDR1 variants, −S100B (GST-NDR1 [3]; autophosphorylated 2 h in the absence of CaCl2 and S100B): 0.514
Specific activity of GST-NDR1 variants, +S100B (GST-NDR1 [3]; autophosphorylated 2 h in the presence of 1 mM CaCl2 and 10 mM bovine S100B): 0.952
kinase activity of GST-NDR1 mutant (in words) (GST-NDR1 [3]; compared with wild type): almost undetectable
Specific activity of GST-NDR1 variants, CTRL (GST-NDR1 [3]; left without further treatment): 0.16
